Experimental data as given in PMC8022922.

Molecular target: AfMAT1-1-1_(78–235) (Aspergillus fumigatus)
Assay: SEC

AfMAT1-1-1_(78–235) (domain or fragment)
stoichiometry N: 2
